The nature of series [1]: Competition Caffeine-ELISA, competition by caffeine. Format: binding. As to conditions: competitors caffeine, theophylline, theobromine; FIG. 4. Here is the method: After caffeine specific clones had been identified, soluble VHH proteins not linked to phage particles were expressed (Harrison, supra). Binding activity of the VHH proteins was assessed in a Standard Caffeine-ELISA. Microtiter plates were coated with caffeine and blocked as above (Coating and Blocking Steps). The VHH proteins serially diluted in 20 mM Tris. pH 7.2 containing 150 mM NaCl and 0.1% Tween (TBS/BSA/Tween) were added and incubated for 90 min at 37° C. (Primary Antibody Step). Bound VHH fragments were detected by the addition of a 1/1000 dilution in TBS/BSA/Tween of mouse-anti-E Tag antibody (Amersham Bioscience Corporation) for 90 min at 37° C. (Secondary Antibody Step), followed by the addition of a 1/1000 dilution in TBS/BSA/Tween of goat-anti-mouse IgG-alkaline phosphatase conjugate for 90 min at 37° C. (Reporter Antibody Step), before the addition of para-nitrophenyl phosphate substrate (p-npp) (Sigma Aldrich) (Substrate Step). The wells were washed and monitored at A405 as above. […]
Binding of VHH proteins to unconjugated caffeine was also assessed by a competition assay (Competition Caffeine-ELISA) in which 0-800 μg/mL caffeine (Sigma-Aldrich) was added as a competitor along with the VHH during the Primary Antibody Step of the Standard Caffeine-ELISA. […] A405 readings with and without competitor were compared. […]

A short description of series [2]: Competition Caffeine-ELISA, cross-reactivity with theophylline. Format: binding. Here is the method: (§1) Binding of VHH proteins to unconjugated caffeine was also assessed by a competition assay (Competition Caffeine-ELISA) in which 0-800 μg/mL caffeine (Sigma-Aldrich) was added as a competitor along with the VHH during the Primary Antibody Step of the Standard Caffeine-ELISA. All other steps are the same as for the Standard Caffeine ELISA. A405 readings with and without competitor were compared. The competition ELISA was used to assess cross-reactivity of theophylline and theobromine (Example 9, FIG. 4) and also the amount of caffeine in various beverages (Example 9, FIG. 7, Table 3).
(§2) Two additional methylxanthines with similar structure to caffeine, theobromine and theophylline, were tested for cross-reactivity with VSA2. The Competition Caffeine-ELISA described above was run using theobromine and theophylline (Sigma-Aldrich) as competitors at concentrations up to 250 μg/mL and compared to competition by caffeine.
(§3) The results of the competition caffeine-ELISA run with increasing concentrations of caffeine (-▪-), theophylline (. .●. .) or theobromine (- -▴- -) is shown in FIG. 4. The response (B) was compared to that of no competitor (Bo).
On the technique in general: An ELISA detects its analyte on a solid surface through an enzyme-linked reagent.

Series [3] is described as follows: Competition Caffeine-ELISA, cross-reactivity with theobromine. The class given is binding. The conditions noted are these: theobromine at concentrations up to 250 μg/mL. Here is the method:
as §1, §2, §3

Series [4] in a line: Thermal stability: Standard Caffeine-ELISA after heat pre-incubation. Format: binding. The method, then: (§4) After caffeine specific clones had been identified, soluble VHH proteins not linked to phage particles were expressed (Harrison, supra). Binding activity of the VHH proteins was assessed in a Standard Caffeine-ELISA. Microtiter plates were coated with caffeine and blocked as above (Coating and Blocking Steps). The VHH proteins serially diluted in 20 mM Tris. pH 7.2 containing 150 mM NaCl and 0.1% Tween (TBS/BSA/Tween) were added and incubated for 90 min at 37° C. (Primary Antibody Step). Bound VHH fragments were detected by the addition of a 1/1000 dilution in TBS/BSA/Tween of mouse-anti-E Tag antibody (Amersham Bioscience Corporation) for 90 min at 37° C. (Secondary Antibody Step), followed by the addition of a 1/1000 dilution in TBS/BSA/Tween of goat-anti-mouse IgG-alkaline phosphatase conjugate for 90 min at 37° C. (Reporter Antibody Step), before the addition of para-nitrophenyl phosphate substrate (p-npp) (Sigma Aldrich) (Substrate Step). The wells were washed and monitored at A405 as above. The Standard ELISA assay was used to assess thermal stability and reactivity of VSA2 (Example 9, FIGS. 5 and 6).
The thermal stability of VSA2 was determined and compared to that of two mouse anti-caffeine monoclonal antibodies (Catalog No. G45110 M and G45111 M, U.S. Biological, Swampscott, Mass.). Antibody solutions were prepared in TBS containing 0.1% Tween and incubated for 20 min at temperatures ranging from RT to 90° C. The solutions were re-equilibrated to RT before measuring caffeine binding activity. For VSA2, the Standard Caffeine-ELISA protocol was followed. For the commercial mouse monoclonal antibodies, the Secondary Antibody Step was skipped.

Series [5] can be described thus: Thermal reactivity at 70° C. with caffeine-biotinylated nonapeptide and streptavidin magnetic beads. The class given is binding. The method, then: as §4
The thermal reactivity of VSA2 was also determined. […] The amount of unbound VSA2 remaining in the supernatant was determined in a Standard Caffeine-ELISA.

A short description of series [6]: Removal of caffeine from solution by VSA2 NiNTA agarose column. The method, then: (§5) The ability of VSA2 to remove caffeine from solution was assessed. VSA2 still containing the His Tag (prior to thrombin cleavage) was coupled to a NiNTA agarose column via its N-terminus His Tag. Approximately 1 mg of antibody was bound to 1 ml of swollen agarose. One mg of a different unrelated protein which also contained a Histag was bound to a NiNTA agarose column as a control. Five μg of caffeine in 0.5 ml of PBS was passed over the column and then washed with 4 ml of PBS and 0.5 ml fractions collected. The amount of caffeine in the wash solutions was determined by absorbance at 273 nm and converted to amount of caffeine via comparison with the absorbance of standards (0, 2.5, 5, 10 ug).
The caffeine bound to the column was eluted with 8 M urea, 100 mM sodium phosphate, 10 mM tris, pH 6.3 and 4.1 ug of caffeine came off the column which was in excellent agreement with the 4.2 ug which had originally bound to the column. No caffeine was eluted from the control column.
The ability of the VSA2 column to remove caffeine from solution was confirmed using HPLC (method previously described) to analyze the original caffeine solution put on the column and the fractions from the column washes. […] The HPLC procedure could not be used to measure the caffeine eluted from the column due to the presence of 8 M urea.

Series [7] is described as follows: Removal of caffeine from decaffeinated coffee by VSA2 column. The conditions noted are these: HPLC. The method, then:
as §5
The ability of VSA2 to remove caffeine from “decaffeinated” coffee was also assessed using brewed decaffeinated coffee (Seattle's Best™). By HPLC analysis, this batch of decaffeinated coffee had 30.8 μg/mL of caffeine. One hundred and sixty seven μL (5.15 μg caffeine) of the decaffeinated coffee was placed on the column and then the column washed as previously described and caffeine measured by HPLC in the 0.5 ml aliquots. 3.9 μg of caffeine was removed from the first decaffeinated coffee aliquot placed on the column and 0.5 μg from the second 167 μl aliquot. The total of 4.4 μg of caffeine removed by the column was very similar to the 4.2 μg removed by the column when caffeine was in a simple solution.

B1: VSA2: caffeine-specific llama single-domain heavy-chain (VHH) antibody fragment; SEQ ID NO: 1 with T7 and E tags, SEQ ID NO: 4 core (protein)
VHH: GSHMASMTGGQQMGRGSEFAEVQLQASGGGLVQAGGSLRLSCTASGRTGTIYSMAWFRQAPGKEREFLATVGWSSGITYYMDSVKGRFTISRDNAKNSAYLQMNSLKPEDTAVYYCTATRAYSVGYDYWGQGTQVTVSHAAAGAPVPYPDPLEPR
modifications: T7 and E tags; Camelidae antibody
On to B1, for which, in series [1], the “specificity for caffeine in competition caffeine-ELISA (B/Bo)” value is listed as “highly specific for caffeine”. Also, the “amount of theophylline relative to caffeine needed for equivalent competition” value in series [2] is given as “approximately fourteen times as much theophylline as caffeine”. The molecule further registered a cross-reactivity with theophylline in series [2] of 7.4%. In series [2] (theophylline at 250 μg/mL), the competition by theophylline entry is on record as “some competition”. Further, the competition by theobromine result in series [3] was “essentially no competition”. Besides, the “effect of heat pre-incubation on caffeine binding” value in series [4] (20 min at temperatures of 60° C. and below, re-equilibrated to RT) was “no effect”. The “activity retained after heat pretreatment” value in series [4] (20 min at temperatures up to 90° C., re-equilibrated to RT) was “greater than 90%”. Besides, the “heat stability compared among four representative clones” value in series [4] (purified soluble antibodies, 2 llama and 2 camel clones) was “greatest degree of heat stability”. Further, the “VHH remaining in solution” value in series [5] (20 μg/mL caffeine-biotinylated-nonapeptide) is 56.8%; in series [5] (200 μg/mL caffeine-biotinylated-nonapeptide) it was 20.1%. Further, the “caffeine bound to the column” value in series [6] (HPLC analysis) came out at 3.8 µg; in series [6] (first 5 μg caffeine aliquot, UV method), 3.6 µg. In addition, the “caffeine eluted from the column” value in series [6] (eluted with 8 M urea, 100 mM sodium phosphate, 10 mM tris, pH 6.3) was determined as 4.1 µg. The “caffeine recovered in the washing solutions” value in series [6] (five μg caffeine in PBS added, about 1 mg His-tagged VSA2 on 1 ml agarose, absorbance at 273 nm, average of duplicate) turned out to be 1.4 µg. For the same molecule, the additional bound caffeine in series [6] (second 5 ug caffeine aliquot, UV method) came to 0.6 µg. Moreover, the “total caffeine originally bound to the column” value in series [6] (two 5 ug aliquots, UV method) was 4.2 µg. Moreover, the results for the caffeine removed in series [7] (first 167 μL decaffeinated coffee aliquot (5.15 μg caffeine)) and in series [7] (second 167 μl decaffeinated coffee aliquot) were 3.9 µg and 0.5 µg, respectively. Further, the “total caffeine removed by the column” value in series [7] (two decaffeinated coffee aliquots) came to 4.4 µg.

The values are drawn from US20070178524A1, “Methods for determining and lowering caffeine concentration in fluids” (Washington University, priority 2004, published 2007).
